Measured values from US20200188528A1 (FRED HUTCHINSON CANCER RESEARCH CENTER, published 2020).

Target: BACE1 (beta-secretase, beta-site APP cleaving enzyme), endogenous enzyme of HEK/hAPP cells (human, UniProt P56817 46-501)
Experiment: cell-based or functional assay

Sequence of BACE1 (beta-secretase, beta-site APP cleaving enzyme), endogenous enzyme of HEK/hAPP cells (P56817 46-501): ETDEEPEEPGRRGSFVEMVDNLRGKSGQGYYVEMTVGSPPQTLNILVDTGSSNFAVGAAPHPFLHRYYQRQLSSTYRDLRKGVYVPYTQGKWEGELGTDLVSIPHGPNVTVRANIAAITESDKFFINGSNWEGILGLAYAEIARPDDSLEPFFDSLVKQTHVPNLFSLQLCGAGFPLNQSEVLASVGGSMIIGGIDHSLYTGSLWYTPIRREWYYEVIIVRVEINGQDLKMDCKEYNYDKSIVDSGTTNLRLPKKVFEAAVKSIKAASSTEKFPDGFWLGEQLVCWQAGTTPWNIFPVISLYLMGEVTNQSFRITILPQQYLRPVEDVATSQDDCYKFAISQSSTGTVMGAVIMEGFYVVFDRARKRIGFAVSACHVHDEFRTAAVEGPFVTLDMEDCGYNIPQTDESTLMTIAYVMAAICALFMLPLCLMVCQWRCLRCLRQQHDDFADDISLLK

| Binder | IC50 (read off the curve), Aβ1-40 secretion from HEK/hAPP cells (HTRF, Percent of Cntl) [nM] |
| --- | --- |
| anti-BACE1 peptide-antibody complex (peptide of SEQ ID NO: 1 fused to the anti-BACE1 antibody heavy chain, SEQ ID NO: 429, assembled with the anti-BACE1 … (antibody) heavy: not shown light: DIQMTQSPSSLSASVGDRVTITCRASQDVSTAVAWYQQKPGKAPKLLIYSASFLYSGVPSRFSGSGSGTDFTLTISSLQPEDFATYYCQQFPTYLPTFGQGTKVEIKRTVAAPSVFIFPPSDEQLKSGTASVVCLLNNFYPREAKVQWKVDNALQSGNSQESVTEQDSKDSTYSLSSTLTLSKADYEKHKVYACEVTHQGLSSPVTKSFNRGEC | ~10 |
| anti-BACE1 antibody comprising an anti-BACE1 antibody heavy chain of SEQ ID NO: 427 and an anti-BACE1 antibody light chain of SEQ ID NO: 428 (antibody, human IgG1, kappa) heavy: not shown light: DIQMTQSPSSLSASVGDRVTITCRASQDVSTAVAWYQQKPGKAPKLLIYSASFLYSGVPSRFSGSGSGTDFTLTISSLQPEDFATYYCQQFPTYLPTFGQGTKVEIKRTVAAPSVFIFPPSDEQLKSGTASVVCLLNNFYPREAKVQWKVDNALQSGNSQESVTEQDSKDSTYSLSSTLTLSKADYEKHKVYACEVTHQGLSSPVTKSFNRGEC | ~10 |
